From patent US9133440B2, “Generation of new pancreatic beta cells” (priority 2012, dated 2015)
Each block holds one molecule with its values, some of them ahead of it.

Columns and labels:
[1] = test system: new small islets developing from non-endocrine tissue; details: cited from earlier work; for levels of new islet markers NGN3, NKX6.1, SOX9, and INS: five days after treatment; for increase in the volume of new small islets developing from non-endocrine tissue: in vivo
Reg Receptor [2] = biological target: T1, Reg Receptor (Homo sapiens, UniProt O43909); assay: Direct binding of Perle peptides to purified Reg Receptor coated on 96 well plate (strep-HRP, absorbance at 405 nm); design: FLAG; made in house; host or cells: 293T cells (transient transfection, harvested after 72 hours); details: FIG. 9; for strength of binding to the Reg Receptor relative to the other peptides tested: comparison among 7-, 8-, 9-amino acid Perle peptides, HIP and scrambled control; for direct binding to the Reg Receptor: purified Reg Receptor coated on plate, peptides bound 1 hour at room temperature, absorbance at 405 nm
T1 sequence (O43909 1-919): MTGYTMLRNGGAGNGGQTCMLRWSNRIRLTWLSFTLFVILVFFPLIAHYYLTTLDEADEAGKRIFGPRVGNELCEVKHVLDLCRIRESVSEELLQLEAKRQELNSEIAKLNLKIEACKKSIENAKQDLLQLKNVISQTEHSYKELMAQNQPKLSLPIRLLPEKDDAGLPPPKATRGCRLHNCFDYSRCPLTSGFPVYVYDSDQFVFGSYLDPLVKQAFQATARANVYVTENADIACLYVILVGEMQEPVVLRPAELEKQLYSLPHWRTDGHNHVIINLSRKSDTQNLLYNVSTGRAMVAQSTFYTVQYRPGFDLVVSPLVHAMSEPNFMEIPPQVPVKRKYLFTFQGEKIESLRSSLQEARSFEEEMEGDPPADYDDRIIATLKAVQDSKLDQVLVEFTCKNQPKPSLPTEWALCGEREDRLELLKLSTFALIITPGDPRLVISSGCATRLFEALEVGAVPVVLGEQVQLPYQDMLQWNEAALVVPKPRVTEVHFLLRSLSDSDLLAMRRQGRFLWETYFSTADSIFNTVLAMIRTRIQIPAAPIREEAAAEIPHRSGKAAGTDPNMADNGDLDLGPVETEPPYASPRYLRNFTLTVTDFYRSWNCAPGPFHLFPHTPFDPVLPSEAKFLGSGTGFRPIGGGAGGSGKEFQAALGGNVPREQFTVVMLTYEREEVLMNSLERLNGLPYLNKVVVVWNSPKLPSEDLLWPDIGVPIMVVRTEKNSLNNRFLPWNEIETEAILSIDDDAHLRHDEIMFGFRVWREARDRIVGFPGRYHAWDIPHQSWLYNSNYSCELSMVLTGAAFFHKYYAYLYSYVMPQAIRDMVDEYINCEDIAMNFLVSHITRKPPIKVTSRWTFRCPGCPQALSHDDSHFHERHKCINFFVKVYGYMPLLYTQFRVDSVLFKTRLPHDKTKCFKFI
Method: Cells were collected after 72 hours. The Reg Receptor was tagged with FLAG epitope and FLAG resin was utilized to purify out the Reg Receptor. […] The Reg Receptor was purified by Anti-Flag M2 affinity gel. Target protein was confirmed by 4-12% SDS-PAGE and Western-blot. […] FIGS. 7b and 7c are the Western blot results showing that the purified protein is the Reg Receptor using the antibody to the Reg Receptor (CD104). The Reg Receptor is shown In FIG. 7 to be highly purified.
Plates were coated overnight coated plate and washed three times with 0.5×TBST and blocked with 3% BSA and rotated at room temperature for 1 hour. After blocking, plates were washed three times with 0.5×TBST. Peptides were then diluted with TBST buffer and added into wells in duplicate then left to bind at room temperature for 1 hour. After washing three times, 100 ng/ml strep-HRP was added into plate at 100 ul/well, and rotated at room temperature for one hour. ABST reagents were warmed to room temperature, mixed immediately before using. Then 100 ul was added to each well and read after 25 minutes reaction and absorbance was evaluated at 405 nm by a Spectramax M5 plate reader. The purified Reg Receptor was coated on plates. Then plates were blocked with BSA solution. Subsequently, the Perle peptides were added into the wells, and HRP-straptavidin and its substrates were added into the wells to reveal the interaction between Receptor and the Perle peptide.

[3] = cited from earlier work
[4] = biological target: 20 amino acid Reg Receptor sequence (SEQ ID NO:9) (amino acids 117-136) (Homo sapiens, UniProt O43909); assay: Enzyme ImmunoAssay titers of polyclonal antibodies raised to the 20-amino acid Reg Receptor sequence; type: binding; details: reference range of FIG. 13; bleed after day 0 and day 21 boosts
Method: FIGS. 11-13 were from studies undertaken to develop stimulatory antibodies to the Reg Receptor to accelerate the progression of beta cell formation by stimulating potential binding sites on the Reg Receptor. For the production of […] antibodies, many sequences were evaluated within the N-terminal portion of Reg receptor (amino acids 1-332) (SEQ ID NO:13), which is the amino acid region believed to be the binding domain for the Reg peptides within the Reg receptor that is not contained in the other members of the of Exostoses family, and thus is hypothesized to be the Reg binding domain.
Data sets were taken from the bleed after the day 0 and day 21 boosts. The animals were injected with a peptide of SEQ ID NO: 9 and were conjugated to keyhole limpet hemocyanin (KLH). […] At a dilution of 1:750,000, the absorbance fell within a range of 0.45 to 0.9. […]
Previous studies have identified that Reg proteins and peptides act through a 919-amino acid cell-surface protein. […] For the production of stimulatory antibodies, sequences were evaluated within the N-terminal portion of the putative Reg Receptor (amino acids 1-332) (SEQ ID NO:13), which is the amino acid region of Reg Receptor that is not contained in the other members of the of Exostoses family, and thus is hypothesized to be the Reg binding domain.

Reg Receptor [5] = biological target: T1, Reg Receptor; assay: Western blot analysis of Reg Receptor translocation from cytoplasmic membrane to nucleus in human extra-islet ductal cells; type: cell-based; details: Perle peptide 167 nM once a day for four days, cytosolic and nuclear fractions, shorter and longer exposure times
Method: Western blot analysis identified the presence of the Reg receptor on the cytoplasmic membrane and the movement of the Reg Receptor from the cytoplasmic membrane through the cytoplasm to the nucleus in the presence of the Perle peptides. Cytoplasmic extracts were obtained in 10 mM HEPES (pH 8.0), 1 mM EDTA, 1.5 mM MgCl2, 10 mM KCl, 0.5 mM DTT, 200 mM sucrose and 0.5% Nonidet P-40. Nuclear extracts were obtained in 20 mM HEPES (pH 7.9), 0.75 mM MgCl2, 210 mM NaCl, 50 mM KCl, 1 mM EDTA, 10% glycerol, and 0.5 mM DTT. Both extraction buffers contained 0.5 mM PMSF, 1 μg/ml leupeptin, 1 μg/ml aprotinin, 2.5 mM Na4P2O7, 1 mM β-glycerophosphate, and 1 mM Na3VO4. […] Secondary signals were developed with chemiluminescence substrate and analyzed by autoradiography. […]
Human extra-islet ductal cells were seeded in T75 flasks in Dulbecco's Modified Eagle media containing 10% fetal bovine serum. […] In these cell extracts the total protein levels were determined, and 50 micrograms of total protein were used to perform the western blot analysis. […]
Analyses were performed from cytoplasmic extracts were obtained in 10 mM HEPES (pH 8.0), 1 mM EDTA, 1.5 mM MgCl2, 10 mM KCl, 0.5 mM DTT, 200 mM sucrose and 0.5% Nonidet P-40. […] Secondary signals were developed with chemiluminescence substrate and analyzed by autoradiography. […]

[6] = test system: STZ-rendered diabetic mice; details: cited from earlier work
[7] = test system: human pancreatic ductal tissue devoid of islets; details: cited from earlier work

Molecule: INGAP: 15-amino acid peptide within the hamster Reg3gamma peptide sequence, prior art (IGLHDPSHGTLPNGS; listed as Mesocricetus auratus)
- levels of new islet markers NGN3, NKX6.1, SOX9, and INS [1]: increased levels
- increase in the volume of new small islets developing from non-endocrine tissue [1]: 2 fold
- rise in stimulated C-peptide ([3]; human type 1 patients, by day 56, p<0.001): 27%
- increase in stimulated C-peptide ([3]; type 1 patients, p=0.0057): 27%

Molecule: NVWIGLHDP (listed as Homo sapiens) [SEQ. ID NO. 1, 9-amino acid Perle peptide within human Reg1a and Reg1b]
- direct binding to the Reg Receptor (Reg Receptor [2]): demonstrated binding
- direct binding to the Reg Receptor (Reg Receptor [2]; listed as 9-amino acid Perle peptide): bind directly

Molecule: WIGLHDP (listed as Homo sapiens) [SEQ. ID NO. 7, 7-amino acid Perle peptide within human Reg1a, Reg1b, Reg3a and Reg4]
- direct binding to the Reg Receptor (Reg Receptor [2]): demonstrated binding
- direct binding to the Reg Receptor (Reg Receptor [2]; listed as 7-amino acid Perle peptide): bind directly

B1: Reg3a protein: human Reg3a gene protein given to ductal tissue and STZ diabetic mice in the inventor's earlier study (protein, listed as Homo sapiens)
chain: MLPPMALPSVSWMLLSCLMLLSQVQGEEPQRELPSARIRCPKGSKAYGSHCYALFLSPKSWTDADLACQKRPSGNLVSVLSGAEGSFVSSLVKSIGNSYSYVWIGLHDPTQGTEPNGEGWEWSSSDVMNYFAWERNPSTISSPGHCASLSRSTAFLRWKDYNCNVRLPYVCKFTD
- rise in total beta cells staining insulin ([6]; STZ-rendered diabetic mice): 3 fold
- fasting glucose ([6]; overnight fast, morning of day 39 of treatment, P=0.020 vs placebo): 111.00 ± 11.4 mg/dL
- insulin concentrations [7]: significant increase

Further lines, with some results ahead:

- direct binding to the Reg Receptor (Reg Receptor [2]): no direct binding
Molecule: HIP: 14-amino Reg 3a peptide sequence (Human Proislet Peptide), prior art (IGLHDPTQGTEPNG; listed as Homo sapiens) [reference compound]
- levels of new islet markers NGN3, NKX6.1, SOX9, and INS [1]: increased levels
- increase in the volume of new small islets developing from non-endocrine tissue [1]: 2 fold
- strength of binding to the Reg Receptor relative to the other peptides tested (Reg Receptor [2]): same level of binding as the scrambled peptide

- response to the antigen according to the polyclonal titer reference range [4]: high response
Molecule: SEQ ID NO: 9: 20-amino acid binding site within the human Reg receptor (amino acids 117-136), used as immunogen (CKKSIENAKQDLLQLKNVIS; listed as Homo sapiens)

- translocation of the Reg Receptor from the cytoplasm to the nucleus (Reg Receptor [5]; listed as 8-amino acid Perle peptide): greatest ability
- translocation of the Reg Receptor from the cytoplasm to the nucleus (Reg Receptor [5]; listed as 8-amino-acid Perle Peptide): greatest impact
- strength of binding to the Reg Receptor relative to the other peptides tested (Reg Receptor [2]): greatest binding
- strength of binding to the Reg Receptor relative to the other peptides tested (Reg Receptor [2]; listed as 8-amino acid peptide): strongest in binding
- direct binding to the Reg Receptor (Reg Receptor [2]): bind directly
Molecule: VWIGLHDP (listed as Homo sapiens) [SEQ. ID NO. 4, 8-amino acid Perle peptide within human Reg1a, Reg1b and Reg3a]
